These results are taken from patent publication US20240043517 (published 2024).

Holding throughout (assay): SPR
One assay deals with T1, mouse GDF-15 (mouse, UniProt Q9Z0J7).
T1 chain: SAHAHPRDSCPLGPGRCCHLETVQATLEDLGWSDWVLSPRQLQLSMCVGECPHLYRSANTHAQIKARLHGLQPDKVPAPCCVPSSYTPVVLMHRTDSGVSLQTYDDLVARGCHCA

The target in a further assay is T2, cynomolgus GDF-15 (cynomolgus monkey, UniProt G7PWZ3).
T2 chain: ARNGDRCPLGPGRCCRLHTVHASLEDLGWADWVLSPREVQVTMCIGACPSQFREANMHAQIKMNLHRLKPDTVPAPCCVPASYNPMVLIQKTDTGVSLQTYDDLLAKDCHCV

Another assay deals with T3, rat GDF-15 (rat, UniProt Q9Z0J6).
T3 chain: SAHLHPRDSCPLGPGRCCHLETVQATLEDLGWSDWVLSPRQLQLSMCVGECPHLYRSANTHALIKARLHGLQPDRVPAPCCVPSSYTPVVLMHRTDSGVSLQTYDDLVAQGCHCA

A further assay has as its target T4, human GDF-15 (human, UniProt Q99988).
T4 chain: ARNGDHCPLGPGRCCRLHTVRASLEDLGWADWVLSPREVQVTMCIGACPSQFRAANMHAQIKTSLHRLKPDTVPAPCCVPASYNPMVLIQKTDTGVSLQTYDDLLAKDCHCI

B1: CTL-002 (antibody, V domains shown)
VH: QITLKESGPTLVKPTQTLTLTCTFSGFSLSTSGMGVSWIRQPPGKGLEWLAHIYWDDDKRYNPTLKSRLTITKDPSKNQVVLTMTNMDPVDTATYYCARSSYGAMDYWGQGTLVTVSS
VL: DIVLTQSPSFLSASVGDRVTITCKASQNVGTNVAWFQQKPGKSPKALIYSASYRYSGVPDRFTGSGSGTEFTLTISSLQPEDFAAYFCQQYNNFPYTFGGGTKLEIKR
The term Kd denotes the concentration at which binding is half-saturated. Consider B1, for which the Kd was 9760 pM with mouse GDF-15, 108 pM with cynomolgus GDF-15, 449 pM in the assay with rat GDF-15 and 38.3 pM with human GDF-15.
